Data on eight molecules can be found in paper PMC5378391, “Maltose binding protein-fusion enhances the bioactivity of truncated forms of pig myostatin propeptide produced in E. coli” (PLoS ONE, 2017).

Series [1] addresses Myostatin (MSTN) (UniProt O14793).
Series [2] deals with Pro23-98 (MBP removed by factor Xa) (pig) (UniProt O18831). Kind of series: non-reducing SDS-PAGE; samples boiled in SDS loading buffer without beta-mercaptoethanol (unreduced) or with it (reduced); 15% gel, Coomassie blue; can show only disulfide-linked dimers.
The target in series [3] is Myostatin (MSTN) (UniProt O14793). This is another data set of the same source.
Series [4] deals with T1, Myostatin (MSTN) (UniProt O14793 267-375).
T1 sequence (looked up): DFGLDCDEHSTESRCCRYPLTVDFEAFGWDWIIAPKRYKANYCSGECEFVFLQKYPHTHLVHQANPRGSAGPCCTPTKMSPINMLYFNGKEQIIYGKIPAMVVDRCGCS
Kind of series: cell-based or functional assay.

Series [5] concerns the molecule itself. Kind of series: non-reducing SDS-PAGE; samples boiled in SDS loading buffer without beta-mercaptoethanol (unreduced) or with it (reduced); 15% gel, Coomassie blue; can show only disulfide-linked dimers.

In the series with Myostatin (MSTN) [1], “Full sequence MBP-fused pig MSTNpro (metalloproteinase-resistant mutant) (domain or fragment)” registered an IC50 to suppress 1 nM MSTN activity, pGL3-(CAGA)12-luciferase reporter assay in HEK293 cells of 2.8 nM.

The molecule “MBP-fused truncated pig MSTNpro containing residues 42-115 (from UniProt O18831 42-115) (domain or fragment)” registered an IC50 to suppress 1 nM MSTN activity, pGL3-(CAGA)12-luciferase reporter assay in HEK293 cells with Myostatin (MSTN) [1] of 17.7 nM.

The molecule “MBP-fused truncated pig MSTNpro containing residues 42-175 (from UniProt O18831 42-175) (domain or fragment)” registered an IC50 to suppress 1 nM MSTN activity, pGL3-(CAGA)12-luciferase reporter assay in HEK293 cells in the series with Myostatin (MSTN) [1] of 2.7 nM.

As for “MBP-fused truncated pig MSTNpro containing residues 42-218 (from UniProt O18831 42-218) (domain or fragment)”, the IC50 to suppress 1 nM MSTN activity, pGL3-(CAGA)12-luciferase reporter assay in HEK293 cells in the series with Myostatin (MSTN) [1] is 3.3 nM.

Broadly, the stoichiometry N is a count of units in the complex or per binding partner. Consider “Pro23-98 (MBP removed by factor Xa) (from UniProt O18831 23-98) (domain or fragment)”, for which the stoichiometry N in series [2] was 2.

For “Pro42-175 (MBP removed by factor Xa) (from UniProt O18831 42-175) (domain or fragment)”, the IC50 to suppress 1 nM MSTN, (CAGA)12-luciferase reporter gene assay, after removal of MBP in the series with Myostatin (MSTN) [3] was determined as 44.9 nM.

B1: MBP-fused truncated pig MSTNpro containing residues 42-98 (domain or fragment, UniProt O18831 42-98, looked up)
chain: CMWRQNTKSSRLEAIKIQILSKLRLETAPNISKDAIRQLLPKAPPLRELIDQYDVQR
With B1, the “IC50 to suppress 1 nM MSTN activity, pGL3-(CAGA)12-luciferase reporter assay in HEK293 cells” value with Myostatin (MSTN) [4] was 24.1 nM.

B2: Pro42-98 (MBP removed by factor Xa) (domain or fragment, pig, UniProt O18831 42-98, looked up)
chain: B1 chain
notes: Pig myostatin propeptide (MSTNpro), residues 42-98; Derived from m4; also called MBP-removed MSTNpro domain containing residues 42-98; source: E. coli K12TB1; MBP-Pro42-98 digested with factor Xa, soluble fraction of the digest / Superdex 75 fraction f16; not shown: MBP, N-terminal, cleaved
B2: the “stoichiometry N” value in series [5] was found to be 2.
